These results are taken from paper PMC5880107, “The Sequence-specific Peptide-binding Activity of the Protein Sulfide Isomerase AGR2 Directs Its Stable Binding to the Oncogenic Receptor EpCAM*^([image sbox.jpg])” (Molecular & Cellular Proteomics : MCP, 2018).

The chains are these.
B1: His-AGR2 WT (mature AGR2, amino acids 21-175, N-terminal 6xHis tag; plasmid pmAGR2) [human] / His-EpEX-CO, extracellular domain of EpCAM (amino acids 24-265), N-terminal 6xHis tag [human] (parent)
chain 1: RDTTVKPGAKKDTKDSRPKLPQTLSRGWGDQLIWTQTYEEALYKSKTSSKPLMIIHHLDECPHSQALKKVFAENKEIQKLAEQFVLLNLVYETTDKHLSPDGQYVPRIMFVDPSLTVRADITGRYSNRLYAYEPADTALLLDNMKKALKLLKTEL
chain 2: QEECVCENYKLAVNCFVNNNRQCQCTSVGAQNTVICSKLAAKCLVMKAEMNGSKLGRRAKPEGALQNNDGLYDPDCDESGLFKAKQCNGTSMCWCVNTAGVRRTDKDTEITCSERVRTYWIIIELKHKAREKPYDSKSLRTALQKEITTRYQLDPKFITSILYENNVITIDLVQNSSQKTQNDVDIADVAYYFEKDVKGESLFHSKKMDLTVNGEQLDLDPGQTLIYYVDEKAPEFSMQGLK

In the first test the parent is B1. The test is described as follows: ELISA (His-EpCAM solid phase; His-AGR2 mobile phase). The settings on record: with His-EpEX-CO, point at 0.5 μg AGR2 (highest dose of the titration), +DTT Blocking (DTT only in the blocking step, before AGR2 binding), read off a plot.
Turning to chain 1 RDTTVKPGAKKDTKDSRPKLPQTLSRGWGDQLIWTQTYEEALYKSKTSSKPLMIIHHLDECPHSQALKKVFAENKEIQKLAEQFVLLNLVYETTDKHLSPDGQYVPRIMFVDPALTVRADITGRYSNRLYAYEPADTALLLDNMKKALKLLKTEL [chain 1 S114A], the response came to 110 RLU.

Staying with this test, now noted: with His-EpEX-CO, point at 0.5 μg AGR2 (highest dose of the titration), no DTT in the blocking step, read off a plot.
In the case of chain 1 RDTTVKPGAKKDTKDSRPKLPQTLSRGWGDQLIWTQTYEEALYKSKTSSKPLMIIHHLDECPHSQALKKVFAENKEIQKLAEQFVLLNLVYETTDKHLSPDGQYVPRIMFVDPALTVRADITGRYSNRLYAYEPADTALLLDNMKKALKLLKTEL [chain 1 S114A], the response is 160 RLU.
